# According to the nanobody polyreactivity screen of Harvey et al. (2022):
# Test: yeast display, Sf9 membrane polyspecificity reagent, FACS + sequencing; frameworks hold sequencing errors
# Outline: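 In a synthetic yeast display library (Saccharomyces cerevisiae BJ5465), nanobody expression was induced with galactose for 36–48 hours. FACS gates were set low and high (top ~1%) using anti-HA fluorescence for expression and streptavidin fluorescence for binding of the Sf9 membrane reagent. Each polyreactivity label is drawn from the gate of origin.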
row,Sequence,polyreactivity (PSR sort gate)
1,QVQLVESGGGLDQAGGSLRLSCAASGRTFGRYAMGWYRKAPGTERELVAAISWSGGSTYYADSVKGRFTISRDNAKNTVYLQMNSLKPEDTAVYYCAAYEHVYEYDYWGQGTQVTVSS,low polyreactivity
2,QVQLVESGGGLVQAGGSLRLSCAASGSTFSQYAMGWYRPAPGKERELVAAINYIGGSTYYADSVKGRFTISRDNAKNTVYLQMNSLKPEDTAVYYCAVQRWKSSVSFGYWGQGTQVTVSS,low polyreactivity
3,QVQLVESGGGLVQAGGSLRLSCAASGFTFNRNAMGWYRQAPGKERELVAAISWSGGSTYYADSVKGRFTISRDNAKYTVYLQMHSLKPEDTAVYYCAQGYRRVYGPFYYWGQGTQVTVSS,low polyreactivity
4,QVQLVESGGGLVQAGGSLRLSCAASGSTFVYYAMGWSRQAPGKERELVAAIKRSGTRTYYADSVKGRFTISRDNAKNTVYLQMNSLKPEDTAVYYCANAVQGKYGYWGQGTQVTVSS,high polyreactivity
5,QVQLVESGGGLVQAGGSLRLSCAASGSTFKEYTMGWYRQAPAKERELVAASSKSGDSTYYADSVKGRFTISRDNAKNTVYLQMNSLKPEDTAVYYCNKPTWYTIYDYWGQGTQVTVSS,low polyreactivity
6,QVQLVESGGGLVQAGGSLRLSCAASGGTFLGNAMGWYRQAPGKERELVADITSGGSTNYADSVKGRFTITRDNAKNTVYLQMNSLKPEDTAVYYCNARWWFQLYYYSTFAGYNYWGQGTQVTVSS,low polyreactivity
7,QVQLVESGGGLVQAGGSLRLSCAASGRTFGFNAMGWYRQAPGKERELVAAISSSSSSTYYADSVKGRFTISRDIAKNTVYLQMNSLKPEDTAVYYCAADIVYVTWFYYWGQGTQVTVSS,low polyreactivity
8,QVQLVESGGGLVQAGGSLRLSGAASGSTFRYYVMGWYRQAPGKERELVAGISYRGGTTYYADSVKGRFTISRDNAKNTVYLQMISLKPEDTAVYYCNAETAAAQASFDRLYVLLDYWGQGTQVTVSS,low polyreactivity
9,QVQLVESVGGLVQAGGSLRLSCAASGSNFSVYVMGWYRQAPGKERELVADISRSGGSTYYADSVKGRFTISRDNAKNTVYLQMNSLKPEDTAVYYCAASLYLSWLFEYWGQGTQVTVSS,low polyreactivity
10,QVQLVESGVGLVQAGGSLSLSCAASGRLFNYYAMGWYRQAPGKERELVAAISSSGGRTYYADSVKGRFTISRDNAKNTVYLQMNCLKPEDTAVFYCAAYDSLRYSTYDYWGQGTQVTVSS,high polyreactivity
11,QVQLVESGGGLVQAGGSLRLSCAASGRIFHQYAMGWYRQAPGKERELVAAITGGGSTYYADSVKGRFTISRDNAKNTVSLQMNSLKPEDTAVYYCAAPPFGYYEVGYDSWGQGTQVTVSS,low polyreactivity
12,QVQLVESGGGLVQAGGSLRLSCAASGIIFHLYTMGWYRQAPGKERELVAAISNNGGRTYYADSVKGRFTISRDNAKNTVYLQMNSLKPEDTAVYYCAKYLSPGERHSYDYWGQGTQVTVSS,high polyreactivity
13,QVQLVDSGGGIVQAGGSLRLSCAASGRIFKLYAMGRYRQAPGKERELVAAISKSGGNTYADSVKGRFTISRDNAKNSVYLQMNSLKPEDTAVYYCAATVQSTSDPFDYWGQGTQVTVSS,low polyreactivity
14,QVQLVESGGGLVQAGGSLRLSCAASGSIFAANAMGWYRQAHGKERELVAAISWSGGYTYADSVKGRFTISRDNAKNTVYLQMKSLKPEDTAFYYCAADLWSQYKFGYWGQGTLVTVSS,low polyreactivity
15,QVQLVESGGGLVQAGGSLRLSCAASGRIFYYNPMGWYRQAPGKERELVAAITKSGGRTYYADSVKGRFTISRDNSKNTVYLQMYSLKPEDTAVYYCAALSRAGEYDYWGQGTQVTVSS,high polyreactivity
16,QVQLVESGGGLDQAGGSLRLSCAASGFTFPIYAMGWYRQAPGKERELVAAITTRGGRTYYADSVKGRFTISRDNAKNTVYLQMNSLKPEDTAVYYCNAQGYAYRLWFGYWGQGTQVTVSS,high polyreactivity
17,QVQLVESGGGLVQAGGSLRLSCAASGITLINYAMGWYRQAPGKERELVAAISTSGSSTYYADSVKGRFTISRDNAKNTVYLQMNSLKQEDTAVYYCNAEGQPLYVSWHDHRYIYGFDYWGQGTQVTVSS,low polyreactivity
